{
  "source": "paper PMC12700558",
  "about": "“Aggregation shifts amyloid-β peptides from synaptogenic to synaptotoxic” (The Journal of Clinical Investigation, 2025)",
  "key": {"human neurons [1]": {"tested_on": "human neurons", "experiment": "NLS-TdTomato cytotoxicity assay (cytoplasmic leakage of NLS-TdTomato)", "method": "The MTT assay employs yellow tetrazolium dye that is reduced to a purple formazan crystal by viable cells with active metabolism ([21]). Because it measures metabolic activity in all cells, this assay serves as a broad cytotoxicity read out for the entire glia/neuron coculture system. The amount of formazan produced is then measured because it is directly proportional to the number of viable cells ([21]) (Figure 1B and Supplemental Figure 1A). The nuclear localization TdTomato assay, conversely, enables monitoring of cellular stress by tracking the localization of fluorescent TdTomato fused to a nuclear localization signal. Under healthy conditions, the nuclear localization signal directs the NLS-TdTomato to the nucleus. When toxicity in a cell causes a reduction in ATP levels, NLS-TdTomato leaks out of the nucleus into the cytoplasm, which we scored as an index of toxicity (Figure 1, C and D, and Supplemental Figure 1, B–D). Because the reporter is expressed only in neurons, this assay specifically assesses neurotoxicity within the coculture. We developed this assay because it can be performed on live cells and reflects decreases in ATP levels in these cells. […]\nTo assess neuronal cytotoxicity induced by Aβ peptides, we employed a novel Td-Tomato cytotoxicity assay that we developed. […] Neurons displaying cytoplasmic Td-Tomato were counted as indicators of cytotoxicity. […]"}, "human neurons [2]": {"tested_on": "human neurons", "experiment": "Quantification of synaptic puncta (Synapsin-1 and PSD95), confocal", "assay_type": "cell-based", "details": "chronic treatment, DIV45", "method": "Mature human iN cells were washed 3 times with PBS (Gibco) and fixed with 4% PFA (Electron Microscopy Science) and 4% sucrose (Sigma-Aldrich) in PBS for 10 minutes at room temperature. Cells were then washed three times with PBS, followed by permeabilization and blocking with 0.25% Triton-X-100 (Sigma-Aldrich), 2.5% bovine serum albumin (BSA) (GeminiBio) and 2,5% NGS (Sigma-Aldrich) for one hour at room temperature. Incubation with primary antibodies was performed overnight at 4°C in the corresponding blocking buffer ([41]). For endosome analyses, fixing solution contained only 4% PFA and the permeabilization was performed separately before the blocking step, using 0.1% Triton-X-100. Primary Antibodies used include rabbit monoclonal anti-Synapsin-1 (Yenzym antibodies, clone YZ6078, 1:1000 dilution), mouse monoclonal anti-PSD95 (Thermo Fisher Scientific, 7E3-1B8, 1:250 dilution), chicken polyclonal anti-MAP2 (EnCor, CPCA-MAP2, 1:1000 dilution), mouse monoclonal 6E10 (BioLegend, SIG-39320, 1:1000), rabbit monoclonal anti-Synaptophysin (homemade, P580 ([26])), and rabbit monoclonal anti-EEA1(Cell Signaling, C45B10, 1:1000 dilution). Cells were washed 3 times with PBS and incubated for 1 hour at room temperature with Alexa conjugated secondary antibodies: goat anti-chicken Alexa 647, goat anti-rabbit Alexa 546, goat anti-rabbit Alexa 488, and goat anti-mouse Alexa 488, all 1:500. […]"}, "human neurons [3]": {"tested_on": "human neurons", "experiment": "Neuronal cell density (NLS-TdTomato-positive nuclei)", "assay_type": "cell-based", "procedure": "The prepared aliquots of Aβ peptides were added directly to the culture media during each routine half-media change. To support optimal neuronal development, maturation, and function, while preserving essential factors released by neurons and glia, fresh media supplemented with Aβ was provided every other day until DIV10, and then once weekly until DIV45. […] During each media change, the Aβ peptides were introduced into the cultures to achieve final concentrations of 0.2 μM, 0.15 μM, 0.1 μM, 0.05 μM, 0.025 μM, and 0.005 μM. For scrambled and inverted sequence peptides, only the 0.2 μM and 0.025 μM concentrations were tested. At DIV6, we initiated a half-media replacement protocol in which 50% of the old culture medium was carefully removed and replaced with fresh medium containing Aβ peptides at twice the intended final concentration. […] For example, to achieve a final concentration of 0.2 μM, the fresh medium added at DIV6 was prepared at 0.4 μM, yielding a uniform 0.2 μM concentration after mixing with the peptide-free half. Starting from DIV8 and onward, subsequent half-media changes replaced half of the existing medium with fresh medium containing Aβ at the same target concentration (e.g., 0.2 μM), since the remaining half already contained approximately that amount. This approach was designed to mimic a chronic treatment regimen, allowing us to investigate the long-term effects of the peptides on synapse formation and neuronal activity under sustained exposure conditions.\nTo assess neuronal cytotoxicity induced by Aβ peptides, we employed a novel Td-Tomato cytotoxicity assay that we developed. Human neurons were infected at DIV 6 with a lentiviral vector carrying a plasmid encoding nuclear localization signal (NLS)-TdTomato under the control of the human Synapsin-1 promoter. The use of the Synapsin promoter ensured neuron-specific expression of Td-Tomato. […] When the neurons had reached full maturation, cells were examined for Td-Tomato localization. Neurons displaying cytoplasmic Td-Tomato were counted as indicators of cytotoxicity. […] For Aβ experiments, imaging and scoring were performed at DIV45, immediately after the final peptide exposure. Data were quantified by calculating the density of neurons with cytoplasmic Td-Tomato, normalized to control cultures, and presented graphically. To assess cell viability, the number of Td-Tomato–positive nuclei, which represent surviving neurons, was counted, normalized to control values, and reported in graphs."}},
  "data": [
    {"substance": "-.DAEFRHDSGYEVHHQKLVFFAGDVGSNKGAIIGLMVGGVVI.A [Aβ42^arctic]", "values": [
      {"measurement": "Concentration at which neurotoxicity became apparent, NLS-TdTomato assay", "setting": "human neurons [1]", "result": "greater than or equal to 0.1 μM"},
      {"measurement": "Loss of synapses", "setting": "human neurons [2]; high concentrations", "result": "greater than 55%"},
      {"measurement": "Effect on synapse numbers (in words)", "setting": "human neurons [2]; lower concentrations", "result": "did not increase synapse numbers"},
      {"measurement": "Neuronal cell density, values normalized to Ctrl (Figure 1E)", "setting": "human neurons [3]; 0.005 uM chronic DIV6-DIV45, DIV45, biological replicate 1", "result": 0.9504},
      {"measurement": "Neuronal cell density, values normalized to Ctrl (Figure 1E)", "setting": "human neurons [3]; 0.005 uM chronic DIV6-DIV45, DIV45, biological replicate 2", "result": 0.943},
      {"measurement": "Neuronal cell density, values normalized to Ctrl (Figure 1E)", "setting": "human neurons [3]; 0.005 uM chronic DIV6-DIV45, DIV45, biological replicate 3", "result": 0.9651},
      {"measurement": "Neuronal cell density, values normalized to Ctrl (Figure 1E)", "setting": "human neurons [3]; 0.05 uM chronic DIV6-DIV45, DIV45, biological replicate 1", "result": 0.9651},
      {"measurement": "Neuronal cell density, values normalized to Ctrl (Figure 1E)", "setting": "human neurons [3]; 0.05 uM chronic DIV6-DIV45, DIV45, biological replicate 2", "result": 0.9896},
      {"measurement": "Neuronal cell density, values normalized to Ctrl (Figure 1E)", "setting": "human neurons [3]; 0.05 uM chronic DIV6-DIV45, DIV45, biological replicate 3", "result": 1.07},
      {"measurement": "Neuronal cell density, values normalized to Ctrl (Figure 1E)", "setting": "human neurons [3]; 0.1 uM chronic DIV6-DIV45, DIV45, biological replicate 1", "result": 0.9054},
      {"measurement": "Neuronal cell density, values normalized to Ctrl (Figure 1E)", "setting": "human neurons [3]; 0.1 uM chronic DIV6-DIV45, DIV45, biological replicate 2", "result": 0.8702},
      {"measurement": "Neuronal cell density, values normalized to Ctrl (Figure 1E)", "setting": "human neurons [3]; 0.1 uM chronic DIV6-DIV45, DIV45, biological replicate 3", "result": 1.014},
      {"measurement": "Neuronal cell density, values normalized to Ctrl (Figure 1E)", "setting": "human neurons [3]; 0.2 uM chronic DIV6-DIV45, DIV45, biological replicate 1", "result": 0.8081},
      {"measurement": "Neuronal cell density, values normalized to Ctrl (Figure 1E)", "setting": "human neurons [3]; 0.2 uM chronic DIV6-DIV45, DIV45, biological replicate 2", "result": 0.8351},
      {"measurement": "Neuronal cell density, values normalized to Ctrl (Figure 1E)", "setting": "human neurons [3]; 0.2 uM chronic DIV6-DIV45, DIV45, biological replicate 3", "result": 0.7942},
      {"measurement": "Decrease of neuronal cell numbers", "setting": "human neurons [3]; higher concentrations, chronic exposure, DIV45", "result": "approximately 15%"}
    ]}
  ]
}
